Measured values taken from patent US20220378931A1 (Eli Lilly, published 2022).
Where a chain is given by its changes, count along the chain named.

B1: INS Analog 30 (other)
chain: FVSQHLCGSHLVEALRLVCGERGFHYTPKTGGGGGGGIVEQCCHSICSLYQLENYCGPGPQPGPQPGPQPGPQPGPQPGPQPGPQPGPQEVQLLESGGGLVQPGGSLRLSCAASGRYIDETAVAWFRQAPGKEREFVAGIGGGVDITYYADSVKGRFTISRDNSKNTLYLQMNSLRPEDTAVYYCAARPGRPLITSKVADLYPYWGQGTLVTVSSPP
notes: single-chain insulin B-L2-A-L1-VHH fusion; also called Ex. 30
B2: INS Analog 26 (other)
chain: B1 chain with H25F, H44T
notes: single-chain insulin B-L2-A-L1-VHH fusion; also called Ex. 26
B3: INS Analog 29 (other)
chain: FVSQHLCGSHLVEALRLVCGERGFHYTPKTGGGGGGGIVEQCCHSICSLYQLENYCGGGGGQGGGGQGGGGQGGGGQGGGGQEVQLLESGGGLVQPGGSLRLSCAASGRYIDETAVAWFRQAPGKEREFVAGIGGGVDITYYADSVKGRFTISRDNSKNTLYLQMNSLRPEDTAVYYCAARPGRPLITSKVADLYPYWGQGTLVTVSSPP
notes: single-chain insulin B-L2-A-L1-VHH fusion; also called Ex. 29
B4: INS Analog 28 (other)
chain: B1 chain with H25F
notes: single-chain insulin B-L2-A-L1-VHH fusion; also called Ex. 28

Biological target: T1, human insulin receptor isoform B with C-terminal C9 tag (human, UniProt P06213 28-1382)
T1 construct: membranes of stably transfected HEK293 cells; also called hIR-B; human IR-B
Assay: 125I-insulin competition SPA, hIR-B membranes, 0.1% HSA
Procedure: (§1) The assays are performed with a SPA method using polyvinyltoluene (PVT) wheat germ agglutinin-coupled SPA beads (Perkin Elmer). Assay buffer contains 50 mM Tris-HCl, pH 7.5, 150 mM NaCl and either A) 0.1% w/v fatty-acid free BSA; B) 0.1% w/v fatty-acid free human serum albumin (HSA); C) 0.1% w/v rat serum albumin (RSA); or D) 0.001% Nonidet P-40 Substitute (NP-40, Roche Diagnostics). Ten-point concentration response curves using three-fold serial dilutions of test samples or controls are prepared in Assay Buffer using a Freedom/Evo robot (Tecan).
(§2) Percent specific inhibition (y-axis) is plotted versus the log concentration of compound (x-axis). […] Reported Ki values are shown as the geometric mean with the standard error (Delta Method Standard Error) and the number of independent replicate determinations used to calculate the geometric mean indicated by n.

Binder | Ki
B1 | 24.5 nM
B2 | 105 nM
B3 | 38.1 nM

Biological target: T2, cow serum albumin (cow, UniProt P02769 25-607)
T2 construct: bought protein, amine-coupled to a CM5 chip; also called Cow SA; Bovine SA
Assay: SPR (Biacore 8K), albumin immobilised, 25 C, steady-state affinity
Procedure: (§3) Immobilization of serum albumin to a Series S Sensor Chip CM5 surface is performed according to the manufacturer's instructions (Amine Coupling Kit BR-1000-50). Briefly, carboxyl groups on the sensor chip surfaces (flow cell 1 and 2) are activated by injecting 70 μL of a mixture containing 75 mg/ml EDC and 11.5 mg/ml NHS at 10 μL/min. Human, cynomolgus monkey, mouse, rat, pig, dog, cow and rabbit serum albumin are diluted in 10 mM NaOAc pH 4.0 (BR-1003-49) at 1, 1, 3, 1, 1, 1, 1 and 1 μg/mL and then injected over the activated chip surfaces (flow cell 2, […]) at 10 μL/min for 90 sec (human, mouse, rat, pig and cow serum albumin are obtained from Sigma Aldrich (St. Louis, Mo.); cynomolgus monkey serum albumin is obtained from Holzel Diagnostika (Cologne, Germany); dog serum albumin is obtained from Molecular Innovations (Novi, Mich.); and rabbit serum albumin is obtained from Fitzgerald Industries International (Acton, Mass.)). […] Excess reactive groups on the surfaces (flow cell 1 and 2) are deactivated by injecting 70 μL of 1 M ETA HCl—NaOH pH 8.5 at 10 μL/min.
(§4) 150 μL of sample is individually injecting sequentially across the immobilized serum albumins surface and then dissociates for 600 sec at 50 μL/min flow rate at 25° C. The surface is regenerated by injecting 10 mM glycine-HCl pH 1.5 (BR-1003-54) at 50 μL/min for 100 sec. The resulting sensorgrams are analyzed using Biacore 8K Insight Evaluation Software (version 2.0.15.12933) 1:1 binding kinetics or steady-state affinity model fitting to calculate the binding kinetic parameter association rate (ka), dissociation rate (kd), and equilibrium dissociation constant (KD)

Binder | Kd
B1 | 370 nM
B2 | 400 nM
B4 | 400 nM
B3 | 380 nM

Biological target: T3, rat serum albumin (rat, UniProt P02770 25-608)
T3 construct: bought protein, amine-coupled to a CM5 chip; also called Rat SA; RSA
Assay: SPR (Biacore 8K), albumin immobilised, 25 C, 1:1 kinetics
Procedure: as §3, §4

Binder | Kd | koff | kon
B1 | 30 nM | 0.0051 s⁻¹ | 170000 M⁻¹ s⁻¹
B2 | 32 nM | 0.0056 s⁻¹ | 170000 M⁻¹ s⁻¹
B4 | 26 nM | 0.0048 s⁻¹ | 180000 M⁻¹ s⁻¹
B3 | 32 nM | 0.0065 s⁻¹ | 200000 M⁻¹ s⁻¹

Biological target: T4, pig serum albumin (pig, UniProt P08835 25-607)
T4 construct: bought protein, amine-coupled to a CM5 chip; also called Pig SA
Assay: as above
Procedure: as §3, §4

Binder | Kd | koff | kon
B1 | 80 nM | 0.0092 s⁻¹ | 110000 M⁻¹ s⁻¹
B2 | 87 nM | 0.0098 s⁻¹ | 110000 M⁻¹ s⁻¹
B4 | 75 nM | 0.0084 s⁻¹ | 110000 M⁻¹ s⁻¹
B3 | 86 nM | 0.013 s⁻¹ | 150000 M⁻¹ s⁻¹

Biological target: T5, dog serum albumin (dog, UniProt P49822 25-608)
T5 construct: bought protein, amine-coupled to a CM5 chip; also called Dog SA
Assay: as above
Procedure: as §3, §4

Binder | Kd | koff | kon
B1 | 13 nM | 0.0022 s⁻¹ | 170000 M⁻¹ s⁻¹
B2 | 13 nM | 0.0023 s⁻¹ | 170000 M⁻¹ s⁻¹
B4 | 12 nM | 0.0021 s⁻¹ | 170000 M⁻¹ s⁻¹
B3 | 16 nM | 0.0032 s⁻¹ | 190000 M⁻¹ s⁻¹

Biological target: T6, cynomolgus monkey serum albumin (cynomolgus monkey, UniProt A2V9Z4 25-608)
T6 construct: bought protein, amine-coupled to a CM5 chip; also called Cyno SA
Assay: as above
Procedure: as §3, §4

Binder | Kd | koff | kon
B1 | 4.3 nM | 0.00069 s⁻¹ | 160000 M⁻¹ s⁻¹
B2 | 3.9 nM | 0.00069 s⁻¹ | 180000 M⁻¹ s⁻¹
B4 | 4.1 nM | 0.00067 s⁻¹ | 170000 M⁻¹ s⁻¹
B3 | 4.4 nM | 0.00078 s⁻¹ | 180000 M⁻¹ s⁻¹

Biological target: T7, mouse serum albumin (mouse, UniProt P07724 25-608)
T7 construct: bought protein, amine-coupled to a CM5 chip; also called Mouse SA
Assay: as above
Procedure: as §3, §4

Binder | Kd | koff | kon
B1 | 39 nM | 0.0071 s⁻¹ | 190000 M⁻¹ s⁻¹
B2 | 35 nM | 0.0069 s⁻¹ | 200000 M⁻¹ s⁻¹
B4 | 37 nM | 0.006 s⁻¹ | 160000 M⁻¹ s⁻¹
B3 | 48 nM | 0.0087 s⁻¹ | 180000 M⁻¹ s⁻¹

Biological target: T8, human serum albumin (human, UniProt P02768 25-609)
T8 construct: bought protein, amine-coupled to a CM5 chip; also called Human SA; HSA
Assay: as above
Procedure: as §3, §4

Binder | Kd | koff | kon
B1 | 0.73 nM | 0.00011 s⁻¹ | 160000 M⁻¹ s⁻¹
B2 | 0.49 nM | 9.4e-05 s⁻¹ | 190000 M⁻¹ s⁻¹
B4 | 0.73 nM | 0.00012 s⁻¹ | 160000 M⁻¹ s⁻¹
B3 | 0.74 nM | 0.00013 s⁻¹ | 180000 M⁻¹ s⁻¹

Biological target: T9, human insulin receptor isoform A with C-terminal C9 tag (human, UniProt P06213 28-1382)
T9 construct: membranes of stably transfected HEK293 cells; also called hIR-A; human IR-A
Assay: 125I-insulin competition SPA, hIR-A membranes, 0.001% NP-40
Procedure: as §1, §2

Binder | Ki
B1 | 49.3 nM
B2 | 105 nM
B4 | 32.7 nM
B3 | 34 nM

Biological target: T1, human insulin receptor isoform B with …
Assay: 125I-insulin competition SPA, hIR-B membranes, 0.001% NP-40
Procedure: as §1, §2

Binder | Ki
B1 | 60 nM
B2 | 214 nM
B3 | 62.5 nM

Biological target: T9, human insulin receptor isoform A with …
Assay: 125I-insulin competition SPA, hIR-A membranes, 0.1% HSA
Procedure: as §1, §2

Binder | Ki
B1 | 17.2 nM
B2 | 40.6 nM
B3 | 28.2 nM

Biological target: T9, human insulin receptor isoform A with …
Assay: 125I-insulin competition SPA, hIR-A membranes, 0.1% BSA
Procedure: as §1, §2

Binder | Ki
B1 | 127 nM
B2 | 389 nM
B4 | 71 nM
B3 | 179 nM

Biological target: T1, human insulin receptor isoform B with …
Assay: 125I-insulin competition SPA, hIR-B membranes, 0.1% BSA
Procedure: as §1, §2

Binder | Ki
B1 | 100 nM
B2 | 405 nM
B3 | 124 nM

Biological target: T10, rabbit serum albumin (rabbit, UniProt P49065 25-608)
T10 construct: bought protein, amine-coupled to a CM5 chip; also called Rabbit SA
Assay: SPR (Biacore 8K), albumin immobilised, 25 C
Procedure: as §3, §4

Binder | binding result
B1 | no binding (tested: up to 1000 nM)
B2 | no binding (tested: up to 1000 nM)
B4 | no binding (tested: up to 1000 nM)
B3 | no binding (tested: up to 1000 nM)
